Laboratory results from patent EP4477673A1, “IMMUNOCONJUGATE AND USE THEREOF” (priority 2022, dated 2023).

What was measured:
[1] = target: Human PD-1 antigen protein (Sino Biological, 10377-H08H) (human, UniProt Q15116 25-167); experiment: SPR Biacore 8K, fusion protein captured by anti-human IgG (Fc), human PD-1 as analyte
human PD-1 = human PD-1 (human, UniProt Q15116 25-288); experiment: cell-based or functional assay
[2] = tested on: CD8^+ T cells stimulated with the CD3 antibody; experiment: Proliferation experiment of T cells stimulated with a CD3 antibody (Ki-67, FACS); format: cell-based, human; details: 4 days
Method: (§1) T cells stimulated with CD3 antibodies highly express PD-1. To determine whether the PD-1-IL-2v with different IL-2 mutants described above can activate T cells among human peripheral blood mononuclear cells (PBMCs) that lowly express PD-1 and highly express PD-1, T cells were isolated from PBMCs and stimulated with a CD3 antibody. The effects of the fusion proteins described above on the proliferation of unstimulated and stimulated T cells were assessed. Proliferation experiment of T cells stimulated with a CD3 antibody: After frozen human PBMCs were thawed, T cells were obtained by isolation using a Pan T Cell Isolation Kit (Miltenyi, 130-096-535). The CD3 antibody was diluted with PBS to 0.1 µg/mL and added to a 10 cm culture dish. The dish was coated at 37 °C for 2 h and washed with PBS for later use. The T cells were plated at 2 × 10^6 cells/mL onto the 10 cm culture dish precoated with the CD3 antibody and stimulated at 37 °C with 5% CO2 for 24 h. The stimulated T cells were collected, washed, and counted, and the cell density was adjusted to 5 × 10^5 cells/mL. The cells were plated at 200 µL/well onto a 96-well plate. The test samples were serially diluted with culture medium to prepare 5× working solutions, and 50 µL of each concentration of the test samples was added to the stimulated T cells and mixed well. The plate was incubated for 4 days. After the drug treatment, the cells were washed twice with FACS buffer (PBS + 2% FBS), and dead cells were labeled with Fixable Viability Dye (eBioscience, 65-0865-14). After flow cytometry antibody staining with CD3 (BD, 565491), CD4 (BD, 558116), CD8 (BD, 565310), Ki-67 (eBioscience, 12-5698-82)), cell proliferation was examined by FACS.

[3] = tested on: CD4^+ T cells stimulated with the CD3 antibody; experiment: as above; format: cell-based, human; details: 4 days
Method: as §1

[4] = tested on: unstimulated CD8^+ T cells; experiment: Unstimulated T cell proliferation experiment (Ki-67, FACS); format: cell-based, human; details: 4 days
Method: (§2) T cells stimulated with CD3 antibodies highly express PD-1. To determine whether the PD-1-IL-2v with different IL-2 mutants described above can activate T cells among human peripheral blood mononuclear cells (PBMCs) that lowly express PD-1 and highly express PD-1, T cells were isolated from PBMCs and stimulated with a CD3 antibody. The effects of the fusion proteins described above on the proliferation of unstimulated and stimulated T cells were assessed. Unstimulated T cell proliferation experiment: The isolated T cells were counted and then plated at 5 × 10^5 cells/mL onto a 96-well plate at 200 µL/well. The test samples were serially diluted with culture medium to prepare 5× working solutions, and 50 µL of each concentration of the test samples was added to the stimulated T cells and mixed well. The plate was incubated for 4 days. After the drug treatment, the cells were washed twice with FACS buffer, and dead cells were labeled with FVD780. After flow cytometry antibody staining, cell proliferation was examined by FACS.

[5] = tested on: unstimulated CD4^+ T cells; experiment: as above; format: cell-based, human; details: 4 days
Method: as §2

Sequence of human PD-1 (Q15116 25-288 limits assumed): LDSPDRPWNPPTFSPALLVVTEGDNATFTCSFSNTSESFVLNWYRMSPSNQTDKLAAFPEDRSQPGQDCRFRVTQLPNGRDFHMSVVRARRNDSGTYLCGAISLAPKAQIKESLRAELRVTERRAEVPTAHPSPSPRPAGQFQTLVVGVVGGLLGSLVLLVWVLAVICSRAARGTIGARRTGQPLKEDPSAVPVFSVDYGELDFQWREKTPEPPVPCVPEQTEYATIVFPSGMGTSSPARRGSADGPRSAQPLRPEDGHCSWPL
Sequence of Human PD-1 antigen protein (Sino Biological, 10377-H08H) (Q15116 25-167 limits assumed): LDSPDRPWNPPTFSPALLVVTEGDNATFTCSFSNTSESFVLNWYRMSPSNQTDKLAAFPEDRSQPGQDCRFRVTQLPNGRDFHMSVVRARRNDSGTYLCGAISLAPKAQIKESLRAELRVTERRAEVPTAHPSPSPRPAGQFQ

B1: A-N88D-M08 (Fc fusion)
chain (part 1 of 2): EVQLVESGGGLVQPGGSLRLSCAASGLTFSDYSMSWYRQAPGKGRELVAIISGSGVITHYVDSVKGRFTISRDNAKNTLYLQMRSLRAEDTAVYYCRAVSDWQDYWGQGTQVTVSS
chain (part 2 of 2): GGGGSGGGGSGGGGSAPASSSTKKTQLQLEHLLLDLQMILQGISNYKNPKLTRMLTAKFYMPKKATELKHLQCLEEELKPLEEVLQGAQSKNFHLRPRDLISDINVIVLELKGSETTFMCEYADETATIVEFLNRWITFAQSIISTLT
chain: EVQLVESGGGLVQPGGSLRLSCAASGLTFSDYSMSWYRQAPGKGRELVAIISGSGVITHYVDSVKGRFTISRDNAKNTLYLQMRSLRAEDTAVYYCRAVSDWQDYWGQGTQVTVSS
notes: also called A-N88D-M8; not shown: IgG1 hinge (C220S) + Fc Knob chain as in A-N88D; IgG1 hinge (C220S) + Fc Hole chain as in A-N88D
- Kd [1]: 12.3 nM
- koff [1]: 0.00264 s⁻¹
- kon [1]: 215000 M⁻¹ s⁻¹
- M07e-hPD-1 cell proliferation ratio (%) at 0.0001 nM (human PD-1): 3.8%
- M07e-hPD-1 cell proliferation ratio (%) at 0.001 nM (human PD-1): 4.5%
- M07e-hPD-1 cell proliferation ratio (%) at 0.01 nM (human PD-1): 11.9%
- M07e-hPD-1 cell proliferation ratio (%) at 0.1 nM (human PD-1): 27.3%
- M07e-hPD-1 cell proliferation ratio (%) at 1 nM (human PD-1): 36%
- M07e-hPD-1 cell proliferation ratio (%) at 10 nM (human PD-1): 35.5%
- M07e-hPD-1 cell proliferation ratio (%) at 100 nM (human PD-1): 35.5%
- M07e-hPD-1 cell proliferation ratio (%) at 1000 nM (human PD-1): 44.2%

B2: A-N88D-M27 (Fc fusion)
chain (part 1 of 2): EVQLVESGGGLVQPGGSLRLSCAASGLTFSSYSMSWYRQAPGKGRELVAIISGSGGITHYVDSVKGRFTISRDNAKNTLYLQMRSLRAEDTAVYYCRAVSDWQDYWGQGTQVTVSS
chain (part 2 of 2): GGGGSGGGGSGGGGSAPASSSTKKTQLQLEHLLLDLQMILQGISNYKNPKLTRMLTAKFYMPKKATELKHLQCLEEELKPLEEVLQGAQSKNFHLRPRDLISDINVIVLELKGSETTFMCEYADETATIVEFLNRWITFAQSIISTLT
chain: EVQLVESGGGLVQPGGSLRLSCAASGLTFSSYSMSWYRQAPGKGRELVAIISGSGGITHYVDSVKGRFTISRDNAKNTLYLQMRSLRAEDTAVYYCRAVSDWQDYWGQGTQVTVSS
notes: not shown: IgG1 hinge (C220S) + Fc Knob chain as in A-N88D; IgG1 hinge (C220S) + Fc Hole chain as in A-N88D
- Kd [1]: 74.3 nM
- koff [1]: 0.0102 s⁻¹
- kon [1]: 137000 M⁻¹ s⁻¹
- M07e-hPD-1 cell proliferation ratio (%) at 0.0001 nM (human PD-1): 7.5%
- M07e-hPD-1 cell proliferation ratio (%) at 0.001 nM (human PD-1): 4.9%
- M07e-hPD-1 cell proliferation ratio (%) at 0.01 nM (human PD-1): 4.9%
- M07e-hPD-1 cell proliferation ratio (%) at 0.1 nM (human PD-1): 9.3%
- M07e-hPD-1 cell proliferation ratio (%) at 1 nM (human PD-1): 21.1%
- M07e-hPD-1 cell proliferation ratio (%) at 10 nM (human PD-1): 31.9%
- M07e-hPD-1 cell proliferation ratio (%) at 100 nM (human PD-1): 39.5%
- M07e-hPD-1 cell proliferation ratio (%) at 1000 nM (human PD-1): 60%

B3: A-N88D-M15 (Fc fusion)
chain (part 1 of 2): EVQLVESGGGLVQPGGSLRLSCAASGLTFSDYSMSWYRQAPGKGRELVAIISGSGGITHYVDSVKGRFTISRDNAKNTLYLQMRSLRAEDTAVYYCRAVSDWEDYWGQGTQVTVSS
chain (part 2 of 2): GGGGSGGGGSGGGGSAPASSSTKKTQLQLEHLLLDLQMILQGISNYKNPKLTRMLTAKFYMPKKATELKHLQCLEEELKPLEEVLQGAQSKNFHLRPRDLISDINVIVLELKGSETTFMCEYADETATIVEFLNRWITFAQSIISTLT
chain: EVQLVESGGGLVQPGGSLRLSCAASGLTFSDYSMSWYRQAPGKGRELVAIISGSGGITHYVDSVKGRFTISRDNAKNTLYLQMRSLRAEDTAVYYCRAVSDWEDYWGQGTQVTVSS
notes: as for B2
- Kd [1]: 29.3 nM
- koff [1]: 0.00706 s⁻¹
- kon [1]: 241000 M⁻¹ s⁻¹
- M07e-hPD-1 cell proliferation ratio (%) at 0.0001 nM (human PD-1): 8.9%
- M07e-hPD-1 cell proliferation ratio (%) at 0.001 nM (human PD-1): 4.1%
- M07e-hPD-1 cell proliferation ratio (%) at 0.01 nM (human PD-1): 7%
- M07e-hPD-1 cell proliferation ratio (%) at 0.1 nM (human PD-1): 17%
- M07e-hPD-1 cell proliferation ratio (%) at 1 nM (human PD-1): 32.9%
- M07e-hPD-1 cell proliferation ratio (%) at 10 nM (human PD-1): 41.6%
- M07e-hPD-1 cell proliferation ratio (%) at 100 nM (human PD-1): 54.9%
- M07e-hPD-1 cell proliferation ratio (%) at 1000 nM (human PD-1): 47.7%

B4: A-N88D-M28 (Fc fusion)
chain (part 1 of 2): EVQLVESGGGLVQPGGSLRLSCAASGLTFSSYSMSWYRQAPGKGRELVAIISGSGGITHYADSVKGRFTISRDNAKNTLYLQMRSLRAEDTAVYYCRAVSDWQDYWGQGTQVTVSS
chain (part 2 of 2): GGGGSGGGGSGGGGSAPASSSTKKTQLQLEHLLLDLQMILQGISNYKNPKLTRMLTAKFYMPKKATELKHLQCLEEELKPLEEVLQGAQSKNFHLRPRDLISDINVIVLELKGSETTFMCEYADETATIVEFLNRWITFAQSIISTLT
chain: EVQLVESGGGLVQPGGSLRLSCAASGLTFSSYSMSWYRQAPGKGRELVAIISGSGGITHYADSVKGRFTISRDNAKNTLYLQMRSLRAEDTAVYYCRAVSDWQDYWGQGTQVTVSS
notes: as for B2
- Kd [1]: 134 nM
- koff [1]: 0.0198 s⁻¹
- kon [1]: 148000 M⁻¹ s⁻¹
- M07e-hPD-1 cell proliferation ratio (%) at 0.0001 nM (human PD-1): 7.2%
- M07e-hPD-1 cell proliferation ratio (%) at 0.001 nM (human PD-1): 6.3%
- M07e-hPD-1 cell proliferation ratio (%) at 0.01 nM (human PD-1): 9.4%
- M07e-hPD-1 cell proliferation ratio (%) at 0.1 nM (human PD-1): 7.6%
- M07e-hPD-1 cell proliferation ratio (%) at 1 nM (human PD-1): 12.4%
- M07e-hPD-1 cell proliferation ratio (%) at 10 nM (human PD-1): 19.1%
- M07e-hPD-1 cell proliferation ratio (%) at 100 nM (human PD-1): 34.4%
- M07e-hPD-1 cell proliferation ratio (%) at 1000 nM (human PD-1): 51.3%

B5: A-N88D-M26 (Fc fusion)
chain (part 1 of 2): EVQLVESGGGLVQPGGSLRLSCAASGLTFSSYSMSWYRQAPGKGRELVAIISGSGGITHYVDSVKGRFTISRDNAKNTLYLQMRSLRAEDTAVYYCRAVSDWEDYWGQGTQVTVSS
chain (part 2 of 2): GGGGSGGGGSGGGGSAPASSSTKKTQLQLEHLLLDLQMILQGISNYKNPKLTRMLTAKFYMPKKATELKHLQCLEEELKPLEEVLQGAQSKNFHLRPRDLISDINVIVLELKGSETTFMCEYADETATIVEFLNRWITFAQSIISTLT
chain: EVQLVESGGGLVQPGGSLRLSCAASGLTFSSYSMSWYRQAPGKGRELVAIISGSGGITHYVDSVKGRFTISRDNAKNTLYLQMRSLRAEDTAVYYCRAVSDWEDYWGQGTQVTVSS
notes: as for B2
- Kd [1]: 53.1 nM
- koff [1]: 0.00948 s⁻¹
- kon [1]: 179000 M⁻¹ s⁻¹
- M07e-hPD-1 cell proliferation ratio (%) at 0.0001 nM (human PD-1): 3.7%
- M07e-hPD-1 cell proliferation ratio (%) at 0.001 nM (human PD-1): 4.8%
- M07e-hPD-1 cell proliferation ratio (%) at 0.01 nM (human PD-1): 9.3%
- M07e-hPD-1 cell proliferation ratio (%) at 0.1 nM (human PD-1): 10.7%
- M07e-hPD-1 cell proliferation ratio (%) at 1 nM (human PD-1): 23.2%
- M07e-hPD-1 cell proliferation ratio (%) at 10 nM (human PD-1): 37%
- M07e-hPD-1 cell proliferation ratio (%) at 100 nM (human PD-1): 43.1%
- M07e-hPD-1 cell proliferation ratio (%) at 1000 nM (human PD-1): 54.4%

B6: PEG-IL-2v (conjugate)
chain: APASSSTKKTQLQLEHLLLDLQMILQGISNYKNPKLTRMLTAKFYMPKKATELKHLQCLEEELKPLEEVLQGAQSKNFHLRPRDLISNINVIVLELKGSETTFMCEYADETATIVEFLNRWITFAQSIISTLT
- CD8^+ Ki67^+ cells (%) ([2]; 0.001 nM): 55.5%
- CD8^+ Ki67^+ cells (%) ([2]; 0.01 nM): 55.5%
- CD8^+ Ki67^+ cells (%) ([2]; 0.1 nM): 67.1%
- CD8^+ Ki67^+ cells (%) ([2]; 1 nM): 76.6%
- CD8^+ Ki67^+ cells (%) ([2]; 10 nM): 82%
- CD8^+ Ki67^+ cells (%) ([2]; 100 nM): 82.5%
- CD4^+ Ki67^+ cells (%) ([3]; 0.001 nM): 32.9%
- CD4^+ Ki67^+ cells (%) ([3]; 0.01 nM): 34.8%
- CD4^+ Ki67^+ cells (%) ([3]; 0.1 nM): 43.3%
- CD4^+ Ki67^+ cells (%) ([3]; 1 nM): 63%
- CD4^+ Ki67^+ cells (%) ([3]; 10 nM): 73%
- CD4^+ Ki67^+ cells (%) ([3]; 100 nM): 74.7%
- CD8^+ Ki67^+ cells (%) ([4]; 0.001 nM): 0.22%
- CD8^+ Ki67^+ cells (%) ([4]; 0.01 nM): 0.59%
- CD8^+ Ki67^+ cells (%) ([4]; 0.1 nM): 0.29%
- CD8^+ Ki67^+ cells (%) ([4]; 1 nM): 1.54%
- CD8^+ Ki67^+ cells (%) ([4]; 10 nM): 43%
- CD8^+ Ki67^+ cells (%) ([4]; 100 nM): 87.3%
- CD4^+ Ki67^+ cells (%) ([5]; 0.001 nM): 0.29%
- CD4^+ Ki67^+ cells (%) ([5]; 0.01 nM): 1.51%
- CD4^+ Ki67^+ cells (%) ([5]; 0.1 nM): 1.38%
- CD4^+ Ki67^+ cells (%) ([5]; 1 nM): 1.77%
- CD4^+ Ki67^+ cells (%) ([5]; 10 nM): 10.2%
- CD4^+ Ki67^+ cells (%) ([5]; 100 nM): 45%
